T1: HAC1-malE fusion (HAC1 DNA binding domain and leucine zipper fragment) (Trichoderma reesei, UniProt Q8TFF3 SEQ:84-203)
T1 chain: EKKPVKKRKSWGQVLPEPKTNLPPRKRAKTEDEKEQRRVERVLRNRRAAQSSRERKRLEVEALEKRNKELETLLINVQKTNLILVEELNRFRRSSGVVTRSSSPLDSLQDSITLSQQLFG


What was measured:
Settings in all cases: tags: N-terminal MBP (malE), pMAL-p2X, E. coli; label: 32P-dCTP Klenow fill-in
[1] = target: T1, HAC1-malE fusion (HAC1 DNA binding …); test: EMSA; no binding at all; 10 mM MgCl2, 50 mM KCl, pH 6.9, poly(dIdC), 25 C
Description: (§1) FIG. 16 depicts bandshift experiments, where the binding of the malE-HAC1 fusion protein to the putative UPR element sequences found in *T. reesei* pdi1 and bip1 promoters was tested. The oligonucleotides used in the binding reactions are shown on the top. Lanes 1, 12 and 16, no protein; lanes 2, 4-7, 8-11. 13-15 and 17-19. malE-HAC1 fusion protein; lane 3. malE protein alone. The binding was competed with unlabelled oligonucleotides on lanes 5 (20× excess); lanes 6, 10, 14 and 18 (50× excess) and lanes 7, 11, 15, and 19 (200× excess). Alignment of the UPR element sequences that bind the HAC1-malE protein is shown below wherein the sequence of pdiUPREII is set forth in SEQ ID No: 61, the sequence of bipUPREI is set forth in SEQ ID No. 62, and the sequence of bipUPREII is set forth in SEQ ID No. 63.
(§2) The oligonucleotides used in binding reactions were annealed in the concentration of […] in 50 mM Tris, pH 8.0, 10 mM MgCl_2, 1 mM spermidine and 5 mM DTT by heating them at 65° C. for 10 minutes and letting them cool down to room temperature during 2 hours. The oligonucleotides were labelled by incubating 100 ng of the annealed oligonucleotide in 10 mM Tris, pH 8.0, 5 mM MgCl_2 with 20 μCi of ^32P-dCTP and 2.5 U Klenow polymerase (Boehringer Mannheim) at 37° C. for 30 minutes. […]

[2] = target: T1, HAC1-malE fusion (HAC1 DNA binding …); test: EMSA; competed by excess unlabelled oligo; 10 mM MgCl2, 50 mM KCl, pH 6.9, poly(dIdC), 25 C
Description: as §1, §2

[3] = target: T1, HAC1-malE fusion (HAC1 DNA binding …); test: EMSA; specific binding; 10 mM MgCl2, 50 mM KCl, pH 6.9, poly(dIdC), 25 C
Description: as §1
The oligonucleotides used in binding reactions were annealed in the concentration of […] in 50 mM Tris, pH 8.0, 10 mM MgCl_2, 1 mM spermidine and 5 mM DTT by heating them at 65° C. for 10 minutes and letting them cool down to room temperature during 2 hours. The oligonucleotides were labelled by incubating 100 ng of the annealed oligonucleotide in 10 mM Tris, pH 8.0, 5 mM MgCl_2 with 20 μCi of ^32P-dCTP and 2.5 U Klenow polymerase (Boehringer Mannheim) at 37° C. for 30 minutes. The binding reactions between the oligonucleotides having the putative UPR elements and the proteins were carried out with 0.5-2 μg of the HAC1-malE fusion protein or 2 μg of the malE protein and 1 ng of the annealed and labelled oligonucleotide in a mixture containing 20 mM HEPES, pH 6.9, 50 mM KCl, 10 mM MgCl_2, 0.25 mM EDTA, 0.5 mM DTT, 2% Ficoll, 5% glycerol and 100 μg/ml poly(dIdC) DNA. The competing oligonucleotides were used in 20-200 times excess of the labelled oligonucleotide. The binding eaction mixtures were incubated for 30 minutes at 25° C. and run in a 5% polyacrylamide gel with 10% glycerol in 12.5 mM Tris-borate, pH 8.3, 0.6 mM EDTA for three hours. The gel was dried on a filter paper and exposed onto an X-ray film.

Row | Binder | binding result [3] | other results
1 | pdiUPREI (dsDNA) DNA 1: GGTACCTGCTAACCAGCGCGGCATGATTCAAC DNA 2: GTTGAATCATGCCGCGCTGGTTAGCAGGTACC |  | binding result [1]: no binding
2 | pdiUPREI+II (dsDNA) DNA 1: CGGCTGAACCAGCGCGGCAGCCAGATGTGGCCAAAGGG DNA 2: CCCTTTGGCCACATCTGGCTGCCGCGCTGGTTCAGCCG |  | binding result [2]: binds
3 | bipUPREI (dsDNA) DNA 1: GGATTAGAAAACGCCAACGTGTCCATAACGGTC DNA 2: GACCGTTATGGACACGTTGGCGTTTTCTAATCC | binds | 
4 | bipUPREII (dsDNA) DNA 1: GGGCGTGGAGAAGCGAGAAGTGGCCTCTTCTTCTCC DNA 2: GGAGAAGAAGAGGCCACTTCTCGCTTCTCCACGCCC | binds | 
5 | pdiUPREII (dsDNA) DNA 1: GGATCTTGCATAGCCAGATGTGGCCTCGATTGACT DNA 2: AGTCAATCGAGGCCACATCTGGCTATGCAAGATCC | binds | 
